Laboratory results from patent US20200283525A1 (published 2020).

Assays:
mouse CTLA-4 protein = mouse CTLA-4 protein (mouse, UniProt P09793 36-161); assay: ELISA
Mouse CTLA4 = Mouse CTLA4 (mouse, UniProt P09793 36-161); assay: ELISA

| IC50 (mouse CTLA-4 protein) [mg/L] | IC50 (Mouse CTLA4) [mg/L] | Binder |
| --- | --- | --- |
| 0.0434 | – | 9D9 DMAb original (antibody) chain 1: EAKLQESGPVLVKPGASVKMSCKASGYTFTDYYMNWVKQSHGKSLEWIGVINPYNGDTSYNQKFKGKATLTVDKSSSTAYMELNSLTSEDSAVYYCARYYGSWFAYWGQGTLITVSTAKTTPPSVYPLAPGCGDTTGSSVTLGCLVKGYFPESVTVTWNSGSLSSSVHTFPALLQSGLYTMSSSVTVPSSTWPSQTVTCSVAHPASSTTVDKKLEPSGPISTINPCPPCKECHKCPAPNLEGGPSVFIFPPNIKDVLMISLTPKVTCVVVDVSEDDPDVQISWFVNNVEVHTAQTQTHREDYNSTIRVVSTLPIQHQDWMSGKEFKCKVNNKDLPSPIERTISKIKGLVRAPQVYILPPPAEQLSRKDVSLTCLVVGFNPGDISVEWTSNGHTEENYKDTAPVLDSDGSYFIYSKLNMKTSKWEKTDSFSCNVRHEGLKNYYLKKTISRSPGK chain 2: DIVMTQTTLSLPVSLGDQASISCRSSQSIVHSNGNTYLEWYLQKPGQSPKLLIYKVSNRFSGVPDRFSGSGSGTDFTLKISRVEAEDLGVYYCFQGSHVPYTFGGGTKLEIKRADAAPTVSIFPPSSEQLTSGGASVVCFLNNFYPKDINVKWKIDGSERQNGVLNSWTDQDSKDSTYSMSSTLTLTKDEYERHNSYTCEATHKTSTSPIVKSFNRNEC |
| – | 0.0442 | 9D9 standard (antibody) chain 1: EAKLQESGPVLVKPGASVKMSCKASGYTFTDYYMNWVKQSHGKSLEWIGVINPYNGDTSYNQKFKGKATLTVDKSSSTAYMELNSLTSEDSAVYYCARYYGSWFAYWGQGTLITVSTAKTTPPSVYPLAPGCGDTTGSSVTLGCLVKGYFPESVTVTWNSGSLSSSVHTFPALLQSGLYTMSSSVTVPSSTWPSQTVTCSVAHPASSTTVDKKLEPSGPISTINPCPPCKECHKCPAPNLEGGPSVFIFPPNIKDVLMISLTPKVTCVVVDVSEDDPDVQISWFVNNVEVHTAQTQTHREDYNSTIRVVSTLPIQHQDWMSGKEFKCKVNNKDLPSPIERTISKIKGLVRAPQVYILPPPAEQLSRKDVSLTCLVVGFNPGDISVEWTSNGHTEENYKDTAPVLDSDGSYFIYSKLNMKTSKWEKTDSFSCNVRHEGLKNYYLKKTISRSPGK chain 2: DIVMTQTTLSLPVSLGDQASISCRSSQSIVHSNGNTYLEWYLQKPGQSPKLLIYKVSNRFSGVPDRFSGSGSGTDFTLKISRVEAEDLGVYYCFQGSHVPYTFGGGTKLEIKRADAAPTVSIFPPSSEQLTSGGASVVCFLNNFYPKDINVKWKIDGSERQNGVLNSWTDQDSKDSTYSMSSTLTLTKDEYERHNSYTCEATHKTSTSPIVKSFNRNEC |

Further lines, the binder ahead of its results:

| Binder | IC50 (mouse CTLA-4 protein) [mg/L] | IC50 (Mouse CTLA4) [mg/L] |
| --- | --- | --- |
| 9D9 DMAb mod #2 (antibody) chain 1: EAKLQESGPVLVKPGASVKMSCKASGYTFTDYYMNWVKQSHGKSLEWIGVINPYNGDTSYNQKFKGKATLTVDKSSSTAYMELNSLTSEDSAVYYCARYYGSWFAYWGQGTLVTVSSAKTTPPSVYPLAPGCGDTTGSSVTLGCLVKGYFPESVTVTWNSGSLSSSVHTFPALLQSGLYTMSSSVTVPSSTWPSQTVTCSVAHPASSTTVDKKLEPSGPISTINPCPPCKECHKCPAPNLEGGPSVFIFPPNIKDVLMISLTPKVTCVVVDVSEDDPDVQISWFVNNVEVHTAQTQTHREDYNSTIRVVSTLPIQHQDWMSGKEFKCKVNNKDLPSPIERTISKIKGLVRAPQVYILPPPAEQLSRKDVSLTCLVVGFNPGDISVEWTSNGHTEENYKDTAPVLDSDGSYFIYSKLNMKTSKWEKTDSFSCNVRHEGLKNYYLKKTISRSPGK chain 2: DIVMTQTTLSLPVSLGDQASISCRSSQSIVHSNGNTYLEWYLQKPGQSPKLLIYKVSNRFSGVPDRFSGSGSGTDFTLKISRVEAEDLGVYYCFQGSHVPYTFGGGTKLEIKRADAAPTVSIFPPSSEQLTSGGASVVCFLNNFYPKDINVKWKIDGSERQNGVLNSWTDQDSKDSTYSMSSTLTLTKDEYERHNSYTCEATHKTSTSPIVKSFNRNEC | 0.0409 | – |
| 9D9 DMAb mod #4 (antibody) chain 1: EVQLQQSGPVLVKPGASVKMSCKASGYTFTDYYMNWVKQSHGKSLEWIGVINPYNGDTSYNQKFKGKATLTVDKSSSTAYMELNSLTSEDSAVYYCARYYGSWFAYWGQGTLVTVSSAKTTPPSVYPLAPGCGDTTGSSVTLGCLVKGYFPESVTVTWNSGSLSSSVHTFPALLQSGLYTMSSSVTVPSSTWPSQTVTCSVAHPASSTTVDKKLEPSGPISTINPCPPCKECHKCPAPNLEGGPSVFIFPPNIKDVLMISLTPKVTCVVVDVSEDDPDVQISWFVNNVEVHTAQTQTHREDYNSTIRVVSTLPIQHQDWMSGKEFKCKVNNKDLPSPIERTISKIKGLVRAPQVYILPPPAEQLSRKDVSLTCLVVGFNPGDISVEWTSNGHTEENYKDTAPVLDSDGSYFIYSKLNMKTSKWEKTDSFSCNVRHEGLKNYYLKKTISRSPGK chain 2: DIVMTQTTLSLPVSLGDQASISCRSSQSIVHSNGNTYLEWYLQKPGQSPKLLIYKVSNRFSGVPDRFSGSGSGTDFTLKISRVEAEDLGVYYCFQGSHVPYTFGGGTKLEIKRADAAPTVSIFPPSSEQLTSGGASVVCFLNNFYPKDINVKWKIDGSERQNGVLNSWTDQDSKDSTYSMSSTLTLTKDEYERHNSYTCEATHKTSTSPIVKSFNRNEC | 0.0367 | – |
| 9D9 DMAb mod #3 (antibody) chain 1: EVQLQQSGPVLVKPGASVKMSCKASGYTFTDYYMNWVKQSHGKSLEWIGVINPYNGDTSYNQKFKGKATLTVDKSSSTAYMELNSLTSEDSAVYYCARYYGSWFAYWGQGTLITVSTAKTTPPSVYPLAPGCGDTTGSSVTLGCLVKGYFPESVTVTWNSGSLSSSVHTFPALLQSGLYTMSSSVTVPSSTWPSQTVTCSVAHPASSTTVDKKLEPSGPISTINPCPPCKECHKCPAPNLEGGPSVFIFPPNIKDVLMISLTPKVTCVVVDVSEDDPDVQISWFVNNVEVHTAQTQTHREDYNSTIRVVSTLPIQHQDWMSGKEFKCKVNNKDLPSPIERTISKIKGLVRAPQVYILPPPAEQLSRKDVSLTCLVVGFNPGDISVEWTSNGHTEENYKDTAPVLDSDGSYFIYSKLNMKTSKWEKTDSFSCNVRHEGLKNYYLKKTISRSPGK chain 2: DIVMTQTTLSLPVSLGDQASISCRSSQSIVHSNGNTYLEWYLQKPGQSPKLLIYKVSNRFSGVPDRFSGSGSGTDFTLKISRVEAEDLGVYYCFQGSHVPYTFGGGTKLEIKRADAAPTVSIFPPSSEQLTSGGASVVCFLNNFYPKDINVKWKIDGSERQNGVLNSWTDQDSKDSTYSMSSTLTLTKDEYERHNSYTCEATHKTSTSPIVKSFNRNEC | 0.0361 | – |
